In US20110165161A1, “ANTI-EPCAM ANTIBODIES THAT INDUCE APOPTOSIS OF CANCER CELLS AND METHODS USING SAME” (priority 2009, published 2011):

How the values were obtained:
[1] = target: T1, human EpCAM (epithelial cell adhesion/activating molecule) (human, UniProt P16422 24-314); assay: cell-based or functional assay
T1 sequence: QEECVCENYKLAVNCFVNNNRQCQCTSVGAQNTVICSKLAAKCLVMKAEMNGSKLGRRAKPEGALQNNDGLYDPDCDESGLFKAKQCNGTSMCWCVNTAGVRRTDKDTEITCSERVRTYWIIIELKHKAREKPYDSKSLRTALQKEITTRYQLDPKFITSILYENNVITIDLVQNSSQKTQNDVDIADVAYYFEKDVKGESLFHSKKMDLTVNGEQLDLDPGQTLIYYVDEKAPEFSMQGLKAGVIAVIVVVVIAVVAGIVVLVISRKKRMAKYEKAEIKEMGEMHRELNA

[2] = target: T1, human EpCAM (epithelial cell …); assay: cell-based or functional assay; remark: listed apart in the source
[3] = target: T1, human EpCAM (epithelial cell …); assay: flow cytometry, CHO/EpCAM cells, 0.1 µg/ml antibody
Protocol: A 300× dilution of human cell hyper-immune serum (HPS 300×) was used as binding positive control for both cell lines here. After 1 hr incubation at 4° C., cells were washed twice with 200 μl FACS buffer (1×PBS containing 1% FBS), stained with 100 μl of 1 μg/ml goat-anti-mouse IgG-PE (Southern Biotech, Cat. No. 1032-09) in FACS buffer and then incubated at 4° C. for 30 min. Cells were washed thrice with FACS buffer and analyzed by flow cytometry (BD LSR, BD Life Sciences).

EGFI-Cr1 N42E = target: T2, EGFI-Cr1 N42E (human, UniProt P16422 24-63); assay: direct ELISA, coated EGFI-Cr1 fusion, 0.1 µg/ml antibody
T2 construct: not shown: the constant region of human immunoglobulin gamma 1 heavy chain (Cr1) fused at the C-terminus
T2 chain: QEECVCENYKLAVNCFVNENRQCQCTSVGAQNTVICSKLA
Protocol: (§1) A direct ELISA was used for testing the reactivity of anti-EpCAM antibodies toward variant EpCAM mutants. Briefly, purified EpCAM EGF-1 fusion proteins (WT, Q24A, E25K, E26D, A35T, N37R, F39A, V40E, N41A, N42E, N43A, R44G, Q45A, Q47A or T49A) and irrelevant control (CEA-Cr1) were pre-diluted to 0.5 μg/ml in coating buffer (8.4 g NaHCO₃, 3.4 g Na₂CO₃ in 1 L H₂O, pH 9.5) and aliquoted (100 μl/well) into 96-well plates. […] Plates were then washed 3 times with PBST followed by the addition of the enzyme substrate TMB (BD Biosciences, Cat. No. 555214). […] The optical densities at 450 nm wavelength were measured on an ELISA plate reader.

EGFI-Cr1 A35T = target: T3, EGFI-Cr1 A35T (human, UniProt P16422 24-63); assay: as above
T3 construct: not shown: The fused constant region of human immunoglobulin gamma 1 heavy chain (Cr1)
T3 chain: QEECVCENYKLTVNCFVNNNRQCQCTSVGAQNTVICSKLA
Protocol: as §1

EGFI-Cr1 R44G = target: T4, EGFI-Cr1 R44G (human, UniProt P16422 24-63); assay: as above
T4 construct: not shown: the constant region of human immunoglobulin gamma 1 heavy chain (Cr1) fused at the C-terminus
T4 chain: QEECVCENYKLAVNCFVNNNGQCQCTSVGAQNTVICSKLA
Protocol: as §1

EGFI-Cr1 F39A = target: T5, EGFI-Cr1 F39A (human, UniProt P16422 24-63); assay: as above
T5 construct: not shown: The fused constant region of human immunoglobulin gamma 1 heavy chain (Cr1)
T5 chain: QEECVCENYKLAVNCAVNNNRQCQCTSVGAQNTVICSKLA
Protocol: as §1

EGFI-Cr1 E26D = target: T6, EGFI-Cr1 E26D (human, UniProt P16422 24-63); assay: as above
T6 construct: not shown: The fused constant region of human immunoglobulin gamma 1 heavy chain (Cr1)
T6 chain: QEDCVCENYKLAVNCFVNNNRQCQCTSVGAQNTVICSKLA
Protocol: as §1

EGFI-Cr1 V40E = target: T7, EGFI-Cr1 V40E (human); assay: as above
T7 construct: not shown: The fused constant region of human immunoglobulin gamma 1 heavy chain (Cr1)
T7 chain: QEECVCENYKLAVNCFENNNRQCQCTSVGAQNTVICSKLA
Protocol: as §1

EGFI-Cr1 N43A = target: T8, EGFI-Cr1 N43A (human, UniProt P16422 24-63); assay: as above
T8 construct: not shown: the constant region of human immunoglobulin gamma 1 heavy chain (Cr1) fused at the C-terminus
T8 chain: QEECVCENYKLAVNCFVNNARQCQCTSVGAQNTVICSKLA
Protocol: as §1

[4] = target: T9, EGFI-Cr1 wild type (first EGF-like repeat of human EpCAM fused to the constant region of human immunoglobulin … (human, UniProt P01857-1 99-330 = IgG part)); assay: as above
T9 construct: cDNA covered aa 1-63; Expressed in COS-7 cells; also called WT; EpCAM EGF-1 fusion protein WT
Protocol: as §1

EGFI-Cr1 Q47A = target: T10, EGFI-Cr1 Q47A (human, UniProt P16422 24-63); assay: as above
T10 construct: not shown: the constant region of human immunoglobulin gamma 1 heavy chain (Cr1) fused at the C-terminus
T10 chain: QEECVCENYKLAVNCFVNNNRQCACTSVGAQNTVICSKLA
Protocol: as §1

EGFI-Cr1 Q24A = target: T11, EGFI-Cr1 Q24A (human, UniProt P16422 25-63); assay: as above
T11 construct: not shown: The fused constant region of human immunoglobulin gamma 1 heavy chain (Cr1)
T11 chain: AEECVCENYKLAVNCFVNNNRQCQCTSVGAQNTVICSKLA
Protocol: as §1

EGFI-Cr1 E25K = target: T12, EGFI-Cr1 E25K (human, UniProt P16422 24-63); assay: as above
T12 construct: not shown: The fused constant region of human immunoglobulin gamma 1 heavy chain (Cr1)
T12 chain: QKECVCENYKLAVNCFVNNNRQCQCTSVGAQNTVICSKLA
Protocol: as §1

EGFI-Cr1 N37R = target: T13, EGFI-Cr1 N37R (human); assay: as above
T13 construct: not shown: The fused constant region of human immunoglobulin gamma 1 heavy chain (Cr1)
T13 chain: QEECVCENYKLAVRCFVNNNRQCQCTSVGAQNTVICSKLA
Protocol: as §1

EGFI-Cr1 N41A = target: T14, EGFI-Cr1 N41A (human, UniProt P16422 24-63); assay: as above
T14 construct: not shown: The fused constant region of human immunoglobulin gamma 1 heavy chain (Cr1)
T14 chain: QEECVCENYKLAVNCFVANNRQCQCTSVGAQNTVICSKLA
Protocol: as §1

EGFI-Cr1 T49A = target: T15, EGFI-Cr1 T49A (human, UniProt P16422 24-63); assay: as above
T15 construct: not shown: the constant region of human immunoglobulin gamma 1 heavy chain (Cr1) fused at the C-terminus
T15 chain: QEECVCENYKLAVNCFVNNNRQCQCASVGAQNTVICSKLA
Protocol: as §1

EGFI-Cr1 Q45A = target: T16, EGFI-Cr1 Q45A (human, UniProt P16422 24-63); assay: as above
T16 construct: not shown: the constant region of human immunoglobulin gamma 1 heavy chain (Cr1) fused at the C-terminus
T16 chain: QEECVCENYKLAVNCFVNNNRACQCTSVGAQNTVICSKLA
Protocol: as §1

- % Annexin V/PI-positive cells, DLD-1, 1.0 µg/ml mAb [1]: 31%
- % Annexin V/PI-positive cells, DLD-1, 3.0 µg/ml mAb [1]: 51%
- % Annexin V/PI-positive cells, DLD-1, 10 µg/ml mAb [1]: 62%
- % Annexin V/PI-positive cells, FaDu, 1.0 µg/ml mAb [1]: 37%
- % Annexin V/PI-positive cells, FaDu, 3.0 µg/ml mAb [1]: 43%
- % Annexin V/PI-positive cells, FaDu, 10 µg/ml mAb [1]: 46%
- % Annexin V/PI-positive cells, LNCaP, 1.0 µg/ml mAb [1]: 49%
- % Annexin V/PI-positive cells, LNCaP, 3.0 µg/ml mAb [1]: 52%
- % Annexin V/PI-positive cells, LNCaP, 10 µg/ml mAb [1]: 50%
- % Annexin V/PI-positive cells, NCI-H520, 1.0 µg/ml mAb [1]: 24%
- % Annexin V/PI-positive cells, NCI-H520, 3.0 µg/ml mAb [1]: 30%
- % Annexin V/PI-positive cells, NCI-H520, 10 µg/ml mAb [1]: 32%
- % Annexin V/PI-positive cells, NCI-N87, 1.0 µg/ml mAb [1]: 49%
- % Annexin V/PI-positive cells, NCI-N87, 3.0 µg/ml mAb [1]: 52%
- % Annexin V/PI-positive cells, NCI-N87, 10 µg/ml mAb [1]: 55%
- % Annexin V/PI-positive cells, NIH:OVCAR-3, 1.0 µg/ml mAb [1]: 40%
- % Annexin V/PI-positive cells, NIH:OVCAR-3, 3.0 µg/ml mAb [1]: 51%
- % Annexin V/PI-positive cells, NIH:OVCAR-3, 10 µg/ml mAb [1]: 56%
- % Annexin V/PI-positive cells, T-47D, 1.0 µg/ml mAb [1]: 35%
- % Annexin V/PI-positive cells, T-47D, 3.0 µg/ml mAb [1]: 44%
- % Annexin V/PI-positive cells, T-47D, 10 µg/ml mAb [1]: 45%
- % of Annexin V + PI staining (untreated background subtracted), NCI-H358, 10 µg/ml mAb, Exp1 [2]: 43%
- % of Annexin V + PI staining (untreated background subtracted), NCI-H358, 10 µg/ml mAb, Exp2 [2]: 41%
- % of Annexin V + PI staining (untreated background subtracted), NCI-H358, 10 µg/ml mAb, Exp3 [2]: 45%
- % of Annexin V + PI staining (untreated background subtracted), NCI-H358, 10 µg/ml mAb, Exp4 [2]: 46%
- % of Annexin V + PI staining (untreated background subtracted), NCI-H358, 10 µg/ml mAb, Exp5 [2]: 43%
- MFI [3]: 1740 MFI
- relative binding activity (% of WT) (EGFI-Cr1 N42E): 82%
- relative binding activity (% of WT) (EGFI-Cr1 A35T): 27%
- relative binding activity (% of WT) (EGFI-Cr1 R44G): 1%
- relative binding activity (% of WT) (EGFI-Cr1 F39A): 11%
- relative binding activity (% of WT) (EGFI-Cr1 E26D): 52%
- relative binding activity (% of WT) (EGFI-Cr1 V40E): 1%
- relative binding activity (% of WT) (EGFI-Cr1 N43A): 57%
- relative binding activity (% of WT) [4]: 100%
- relative binding activity (% of WT) (EGFI-Cr1 Q47A): 23%
- relative binding activity (% of WT) (EGFI-Cr1 Q24A): 41%
- relative binding activity (% of WT) (EGFI-Cr1 E25K): 2%
- relative binding activity (% of WT) (EGFI-Cr1 N37R): 64%
- relative binding activity (% of WT) (EGFI-Cr1 N41A): 0%
- relative binding activity (% of WT) (EGFI-Cr1 T49A): 63%
- relative binding activity (% of WT) (EGFI-Cr1 Q45A): 4%
B1: murine monoclonal antibody 4D2 (antibody, mouse IgG1, V domains shown)
VH: EVQLVESGGDLVKPGGSLKLSCAASGFAFDSYGMSWVRQTPGKRLEWVATISSGGYYTYYQDSVKGRFTTSRDNAKNTLDLQMSSLKSEDSAIYYCARRGNYDVDYYAMDYWGQGTSVTVSS
VL: DVVMTQTPLSLPVSLGDQASISCRSSQSLVHSNGNTYLHWYLQKPGQSPKLLIYKVSNRFSGVPDRFSGSGSGTDFTLRISRVEAEDLGVYFCSQSTHVPPWTFGGGTKLEIKR
notes: Mouse IgG1, kappa, from hybridoma; also called m338-4D2.20
